Results reported in IntAct's records for PubMed 16498409.

B1: ADP-ribosylation factor 1 (Saccharomyces cerevisiae), P11076 (parent)
chain: MGLFASKLFSNLFGNKEMRILMVGLDGAGKTTVLYKLKLGEVITTIPTIGFNVETVQYKNISFTVWDVGGQDRIRSLWRHYYRNTEGVIFVVDSNDRSRIGEAREVMQRMLNEDELRNAAWLVFANKQDLPEAMSAAEITEKLGLHSIRNRPWFIQATCATSGEGLYEGLEWLSNSLKNST
B2: ADP-ribosylation factor 1 (Saccharomyces cerevisiae), P11076 (parent)
chain: B1 chain
partner: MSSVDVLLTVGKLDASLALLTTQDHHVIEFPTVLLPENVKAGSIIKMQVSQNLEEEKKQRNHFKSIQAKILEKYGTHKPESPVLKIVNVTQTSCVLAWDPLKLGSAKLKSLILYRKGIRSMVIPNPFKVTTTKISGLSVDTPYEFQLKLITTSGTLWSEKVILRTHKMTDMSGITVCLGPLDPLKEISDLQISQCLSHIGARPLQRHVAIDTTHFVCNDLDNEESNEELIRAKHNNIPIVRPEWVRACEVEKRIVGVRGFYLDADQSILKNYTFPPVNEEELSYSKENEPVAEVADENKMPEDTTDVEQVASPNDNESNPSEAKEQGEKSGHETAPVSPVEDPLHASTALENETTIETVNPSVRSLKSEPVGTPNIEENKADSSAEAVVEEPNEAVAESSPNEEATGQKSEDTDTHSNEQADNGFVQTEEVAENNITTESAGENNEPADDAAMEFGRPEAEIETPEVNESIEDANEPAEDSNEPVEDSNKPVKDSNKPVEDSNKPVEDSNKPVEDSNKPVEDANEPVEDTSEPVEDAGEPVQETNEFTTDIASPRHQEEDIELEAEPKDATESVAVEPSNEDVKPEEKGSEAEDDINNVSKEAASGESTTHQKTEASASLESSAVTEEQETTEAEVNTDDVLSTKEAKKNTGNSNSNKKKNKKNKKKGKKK

Variants of: B1
Details: with glo3_yeast GLO3, P38682
Chain of glo3_yeast GLO3, P38682 (P38682 whole entry): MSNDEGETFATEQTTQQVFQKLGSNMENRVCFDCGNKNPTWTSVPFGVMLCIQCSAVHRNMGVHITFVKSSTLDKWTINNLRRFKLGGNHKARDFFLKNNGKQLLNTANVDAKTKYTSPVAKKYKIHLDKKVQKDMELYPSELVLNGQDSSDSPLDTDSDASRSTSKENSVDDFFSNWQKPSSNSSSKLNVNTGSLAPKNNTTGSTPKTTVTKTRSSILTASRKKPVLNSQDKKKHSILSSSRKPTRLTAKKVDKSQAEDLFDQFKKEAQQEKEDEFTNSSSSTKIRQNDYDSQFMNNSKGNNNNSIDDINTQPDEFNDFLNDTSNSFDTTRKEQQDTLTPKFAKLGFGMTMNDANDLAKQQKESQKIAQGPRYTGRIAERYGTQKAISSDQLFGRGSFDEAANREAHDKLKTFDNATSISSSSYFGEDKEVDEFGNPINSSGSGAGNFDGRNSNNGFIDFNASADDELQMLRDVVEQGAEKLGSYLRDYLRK
In the case of MGLFASKLFSNLFGNKEMRILMVGLDGAGKTTVLYKLKLGEVITTIPTIGFNVETVQYKNISFTVWDVGGLDRIRSLWRHYYRNTEGVIFVVDSNDRSRIGEAREVMQRMLNEDELRNAAWLVFANKQDLPEAMSAAEITEKLGLHSIRNRPWFIQATCATSGEGLYEGLEWLSNSLKNST, the “effect of a mutation on the interaction” value is reported as “increasing interaction”.

Variants of: B2
Details: with chs5_yeast CHS5, Q12114
In the case of MGLFASKLFSNLFGNKEMRILMVGLDGAGKTTVLYKLKLGEVITTIPTIGFNVETVQYKNISFTVWDVGGLDRIRSLWRHYYRNTEGVIFVVDSNDRSRIGEAREVMQRMLNEDELRNAAWLVFANKQDLPEAMSAAEITEKLGLHSIRNRPWFIQATCATSGEGLYEGLEWLSNSLKNST, the “effect of a mutation on the interaction” value is reported as “increasing interaction”.
